The record followed here is patent US20190389973A1 (Y BIOLOGICS, published 2019).

The target of one assay is VEGFA. In words: ELISA on coated VEGFA. The procedure:
(§1) The affinity of Fv2mabs consisting of the tandem Fv combinations of anti-TNF-α and anti-VEGFA; and anti-TNF-α and anti-IL17A was measured by using ELISA method. Antigens such as TNF-α, VEGFA, and IL-17A, were fixed on an immune-plate at a concentration of 100 ng/well (96 well) by using pH 7.4 PBS as a coating buffer through a reaction at 4° C. overnight. Each well was once washed with PBST 200 μl, and then a surface blocking reaction was performed at room temperature with 5% skim milk for one to two hours. Subsequently, after washing each well twice with PBST 200 μl, a serial dilution was performed with an appropriate bispecific Fv2mab to measure and a control parental antibody from an appropriate concentration in an interval of ½ to ⅕ for a reaction at room temperature for one to two hours. Then, each well was washed three times with PBST 200 μl to remove unbound antibodies, and a dilution was performed with horseradish peroxidase (HRP)-conjugated anti-human-Fc-HRP (Millipore, USA) at a ratio of 1:3000 for a reaction at room temperature for one hour. Then, each well was washed three times with PBST 200 μl to remove unbound detection antibodies. A color reaction of HRP was induced by using TMB solution (GEhealthcare, USA) in a volume of […], and the reaction was terminated by using a stop solution (2.5 M H2SO4, 100 μl/well).
For orientation: In an ELISA, binding on a coated surface is turned into a signal by an enzyme label.

Another assay concerns the target T1, TNF-α (UniProt P01375 77-233).
T1 construct: Soluble antigen used as analyte in the OCTET assay and coated in ELISA; also called TNF-a
As to the kind of experiment: ELISA on coated TNF-α. The procedure: as §1

VEGFA, sequence (P15692 whole entry): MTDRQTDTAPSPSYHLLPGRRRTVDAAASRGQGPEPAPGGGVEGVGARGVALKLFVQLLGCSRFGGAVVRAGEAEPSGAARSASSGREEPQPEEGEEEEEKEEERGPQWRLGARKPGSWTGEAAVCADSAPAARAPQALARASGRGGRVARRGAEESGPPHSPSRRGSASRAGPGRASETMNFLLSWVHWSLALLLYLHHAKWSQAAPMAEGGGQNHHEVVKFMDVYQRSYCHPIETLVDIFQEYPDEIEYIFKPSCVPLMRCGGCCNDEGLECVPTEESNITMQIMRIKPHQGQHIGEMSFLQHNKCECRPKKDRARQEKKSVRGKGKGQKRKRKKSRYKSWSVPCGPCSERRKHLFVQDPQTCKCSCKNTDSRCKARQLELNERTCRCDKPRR
T1 sequence (P01375 77-233 limits assumed): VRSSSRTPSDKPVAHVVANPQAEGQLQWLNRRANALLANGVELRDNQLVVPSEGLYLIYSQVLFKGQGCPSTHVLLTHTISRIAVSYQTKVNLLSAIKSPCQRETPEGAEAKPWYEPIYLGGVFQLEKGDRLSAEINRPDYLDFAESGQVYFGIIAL

B1: anti-VEGFA AB (antibody, V domains shown)
VH: QVTLKESGPTMVKPTQTLTLTCTFSGFSLSTSGVAVGWIRQPPGQALEWLALIYWDNDKRYSPSLKNRLTVAKDTSKSQVVLTMTNMDPMDTATYYCAHGDGWLFDFWGQGTLVTVSS
VL: QPVLTQPPSVSGAPGQRVTISCTGSNSNIGAGHDVHWYQQLPGAAPKVVIYGNTNRASGVPERFSGSKSATSASLAITGLQAEDEADYYCQSYDNSLSGYVFGTGTKVTVL
notes: The sheet calls it 'parantal antibody'; also called anti-VEGFA antibody; F6 (in-house)
Consider B1, for which the “EC50 (read off the curve)” value with VEGFA is roughly 0.3 nM. For the same molecule, the binding result with TNF-α is “binds”.

Usually EC50 (read off the curve) stands for the midpoint of the concentration-response curve.
